Experimental data reported in article doi:10.1101/2023.10.23.563687.

Target: full-length BCL6 construct overexpressed in HEK293T cells (ternary complex nanoBRET) (UniProt P41182)

Sequence of full-length CDK9 construct overexpressed in HEK293T cells (ternary complex nanoBRET) (P50750 whole entry, one chain of several): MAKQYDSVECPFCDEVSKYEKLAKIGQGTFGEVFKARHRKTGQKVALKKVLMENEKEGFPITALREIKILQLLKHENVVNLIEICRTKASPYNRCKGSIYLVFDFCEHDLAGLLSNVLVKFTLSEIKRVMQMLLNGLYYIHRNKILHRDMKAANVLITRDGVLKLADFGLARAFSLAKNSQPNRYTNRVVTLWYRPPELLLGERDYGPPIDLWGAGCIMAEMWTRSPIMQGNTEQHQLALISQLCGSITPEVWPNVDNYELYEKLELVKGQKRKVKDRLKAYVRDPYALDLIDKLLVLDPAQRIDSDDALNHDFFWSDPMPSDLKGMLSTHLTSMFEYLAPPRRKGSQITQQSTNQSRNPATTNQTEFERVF

## full-length CDK9 construct overexpressed in HEK293T cells (ternary complex nanoBRET) (from UniProt P50750 1-372) (enzyme)
  cell killing of SUDHL5 DLBCL cells by CDK-TCIP1, 72-hour cell viability assay: 6.9 nM
